Patent US20060286615A1

Molecular target: monoclonal anti-H2a antibody of hybridoma clone B9 (ECACC 04030801)
Assay: competitive ELISA, antibody preincubated overnight with free specific peptide, then plate-bound peptide

% inhibition of the reaction: 81%
Binder: CEKRRNATGEVA [H2 carboxyterminal peptide (SEQ ID NO:1, …)]
